Biological target: T1, DNA polymerase III alpha subunit (PolIIIα), exonuclease-deficient (Thermus aquaticus, UniProt Q9XDH5 1-1220, D20N;D212N)
T1 sequence: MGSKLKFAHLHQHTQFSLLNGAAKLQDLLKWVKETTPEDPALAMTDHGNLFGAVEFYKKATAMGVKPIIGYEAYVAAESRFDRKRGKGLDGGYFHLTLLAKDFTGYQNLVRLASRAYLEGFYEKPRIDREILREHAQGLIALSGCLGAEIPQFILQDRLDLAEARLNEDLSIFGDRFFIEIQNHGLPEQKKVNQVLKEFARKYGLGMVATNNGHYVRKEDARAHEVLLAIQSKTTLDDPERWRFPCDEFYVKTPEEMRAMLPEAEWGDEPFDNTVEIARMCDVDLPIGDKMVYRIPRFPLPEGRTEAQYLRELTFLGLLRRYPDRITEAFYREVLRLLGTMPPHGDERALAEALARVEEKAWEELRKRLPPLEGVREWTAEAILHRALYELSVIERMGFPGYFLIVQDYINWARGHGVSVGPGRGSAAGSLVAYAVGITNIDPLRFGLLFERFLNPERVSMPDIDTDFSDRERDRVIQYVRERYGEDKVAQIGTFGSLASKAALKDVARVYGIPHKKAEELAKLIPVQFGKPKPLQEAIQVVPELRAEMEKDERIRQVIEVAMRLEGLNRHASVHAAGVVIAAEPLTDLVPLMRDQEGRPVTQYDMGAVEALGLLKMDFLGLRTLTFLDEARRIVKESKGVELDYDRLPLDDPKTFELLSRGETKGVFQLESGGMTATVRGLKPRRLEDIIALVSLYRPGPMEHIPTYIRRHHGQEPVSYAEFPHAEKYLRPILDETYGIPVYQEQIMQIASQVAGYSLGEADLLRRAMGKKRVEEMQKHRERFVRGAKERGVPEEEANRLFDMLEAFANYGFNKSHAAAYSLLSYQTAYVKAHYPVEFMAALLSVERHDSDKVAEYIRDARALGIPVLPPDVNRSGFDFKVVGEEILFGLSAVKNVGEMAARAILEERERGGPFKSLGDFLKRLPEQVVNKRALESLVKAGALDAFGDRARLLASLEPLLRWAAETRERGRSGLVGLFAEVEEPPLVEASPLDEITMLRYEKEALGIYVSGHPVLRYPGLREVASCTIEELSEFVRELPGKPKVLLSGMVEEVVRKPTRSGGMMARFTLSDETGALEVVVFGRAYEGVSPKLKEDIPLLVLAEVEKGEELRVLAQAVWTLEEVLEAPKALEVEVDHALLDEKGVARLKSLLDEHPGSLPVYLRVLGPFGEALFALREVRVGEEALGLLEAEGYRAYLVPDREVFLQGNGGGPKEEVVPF
Test: X-ray crystallography

B1: primer-template DNA, ddC-terminated primer (dsDNA)
DNA 1: CGAAACGACGGCCAGTGCCAC
DNA 2: TTTTTTGTGGCACTGGCCGTCGTTTCG
modifications: 2',3'-dideoxycytidine at primer 3' end (incorporated in situ by the polymerase)
B1: binds.

— PMC2614274
